Measured values from patent US20110118131A1 (published 2011).

molecular target: T1, IL-1β (UniProt P01584 117-269); test: Biacore, periplasmic extract
T1 construct: Antigen immobilised on the Biacore chip

| fold difference in affinity vs original | binding result | Binder |
| --- | --- | --- |
| 0.02 fold | – | XPA23 light chain S50W (Fab, V domains shown) VH: EVQLLESGGGLVQPGGSLRLSCAASGFTFSKYFMFWVRQAPGKGLEWVSVISPSGGMTRYADSVKGRFTISRDNSKNTLYLQMNSLRAEDTAVYYCARVGYGGNSDYWGQGTLVTVSS VL: DIQMTQSPSSVSASVGDRLTIICRASQDINRWLAWYQQTPGNAPKLLIHWATSLQSGVPSRFSGSGSGTDFTLTINSLQPEDFATYYCQQADSFPLTFGGGTKVEIK |
| 0.05 fold | – | XPA23 light chain S50Y (Fab, V domains shown) VH: EVQLLESGGGLVQPGGSLRLSCAASGFTFSKYFMFWVRQAPGKGLEWVSVISPSGGMTRYADSVKGRFTISRDNSKNTLYLQMNSLRAEDTAVYYCARVGYGGNSDYWGQGTLVTVSS VL: DIQMTQSPSSVSASVGDRLTIICRASQDINRWLAWYQQTPGNAPKLLIHYATSLQSGVPSRFSGSGSGTDFTLTINSLQPEDFATYYCQQADSFPLTFGGGTKVEIK |
| 3.71 fold | – | XPA23 light chain S93E (Fab, V domains shown) VH: EVQLLESGGGLVQPGGSLRLSCAASGFTFSKYFMFWVRQAPGKGLEWVSVISPSGGMTRYADSVKGRFTISRDNSKNTLYLQMNSLRAEDTAVYYCARVGYGGNSDYWGQGTLVTVSS VL: DIQMTQSPSSVSASVGDRLTIICRASQDINRWLAWYQQTPGNAPKLLIHSATSLQSGVPSRFSGSGSGTDFTLTINSLQPEDFATYYCQQADEFPLTFGGGTKVEIK |
| 1.23 fold | – | XPA23 light chain S53Y (Fab, V domains shown) VH: EVQLLESGGGLVQPGGSLRLSCAASGFTFSKYFMFWVRQAPGKGLEWVSVISPSGGMTRYADSVKGRFTISRDNSKNTLYLQMNSLRAEDTAVYYCARVGYGGNSDYWGQGTLVTVSS VL: DIQMTQSPSSVSASVGDRLTIICRASQDINRWLAWYQQTPGNAPKLLIHSATYLQSGVPSRFSGSGSGTDFTLTINSLQPEDFATYYCQQADSFPLTFGGGTKVEIK |
| – | no binding | XPA23 light chain S53D (Fab, V domains shown) VH: EVQLLESGGGLVQPGGSLRLSCAASGFTFSKYFMFWVRQAPGKGLEWVSVISPSGGMTRYADSVKGRFTISRDNSKNTLYLQMNSLRAEDTAVYYCARVGYGGNSDYWGQGTLVTVSS VL: DIQMTQSPSSVSASVGDRLTIICRASQDINRWLAWYQQTPGNAPKLLIHSATDLQSGVPSRFSGSGSGTDFTLTINSLQPEDFATYYCQQADSFPLTFGGGTKVEIK |
| 0.86 fold | – | XPA23 light chain S93K (Fab, V domains shown) VH: EVQLLESGGGLVQPGGSLRLSCAASGFTFSKYFMFWVRQAPGKGLEWVSVISPSGGMTRYADSVKGRFTISRDNSKNTLYLQMNSLRAEDTAVYYCARVGYGGNSDYWGQGTLVTVSS VL: DIQMTQSPSSVSASVGDRLTIICRASQDINRWLAWYQQTPGNAPKLLIHSATSLQSGVPSRFSGSGSGTDFTLTINSLQPEDFATYYCQQADKFPLTFGGGTKVEIK |
| 1.11 fold | – | XPA23 light chain S53W (Fab, V domains shown) VH: EVQLLESGGGLVQPGGSLRLSCAASGFTFSKYFMFWVRQAPGKGLEWVSVISPSGGMTRYADSVKGRFTISRDNSKNTLYLQMNSLRAEDTAVYYCARVGYGGNSDYWGQGTLVTVSS VL: DIQMTQSPSSVSASVGDRLTIICRASQDINRWLAWYQQTPGNAPKLLIHSATWLQSGVPSRFSGSGSGTDFTLTINSLQPEDFATYYCQQADSFPLTFGGGTKVEIK |
| 1.54 fold | – | XPA23 light chain S93Q (Fab, V domains shown) VH: EVQLLESGGGLVQPGGSLRLSCAASGFTFSKYFMFWVRQAPGKGLEWVSVISPSGGMTRYADSVKGRFTISRDNSKNTLYLQMNSLRAEDTAVYYCARVGYGGNSDYWGQGTLVTVSS VL: DIQMTQSPSSVSASVGDRLTIICRASQDINRWLAWYQQTPGNAPKLLIHSATSLQSGVPSRFSGSGSGTDFTLTINSLQPEDFATYYCQQADQFPLTFGGGTKVEIK |
| 1.09 fold | – | XPA23 light chain S53Q (Fab, V domains shown) VH: EVQLLESGGGLVQPGGSLRLSCAASGFTFSKYFMFWVRQAPGKGLEWVSVISPSGGMTRYADSVKGRFTISRDNSKNTLYLQMNSLRAEDTAVYYCARVGYGGNSDYWGQGTLVTVSS VL: DIQMTQSPSSVSASVGDRLTIICRASQDINRWLAWYQQTPGNAPKLLIHSATQLQSGVPSRFSGSGSGTDFTLTINSLQPEDFATYYCQQADSFPLTFGGGTKVEIK |
| 1.13 fold | – | XPA23 light chain S53E (Fab, V domains shown) VH: EVQLLESGGGLVQPGGSLRLSCAASGFTFSKYFMFWVRQAPGKGLEWVSVISPSGGMTRYADSVKGRFTISRDNSKNTLYLQMNSLRAEDTAVYYCARVGYGGNSDYWGQGTLVTVSS VL: DIQMTQSPSSVSASVGDRLTIICRASQDINRWLAWYQQTPGNAPKLLIHSATELQSGVPSRFSGSGSGTDFTLTINSLQPEDFATYYCQQADSFPLTFGGGTKVEIK |
| 0.66 fold | – | XPA23 light chain T52A (Fab, V domains shown) VH: EVQLLESGGGLVQPGGSLRLSCAASGFTFSKYFMFWVRQAPGKGLEWVSVISPSGGMTRYADSVKGRFTISRDNSKNTLYLQMNSLRAEDTAVYYCARVGYGGNSDYWGQGTLVTVSS VL: DIQMTQSPSSVSASVGDRLTIICRASQDINRWLAWYQQTPGNAPKLLIHSAASLQSGVPSRFSGSGSGTDFTLTINSLQPEDFATYYCQQADSFPLTFGGGTKVEIK |
| 1.23 fold | – | XPA23 light chain S53N (Fab, V domains shown) VH: EVQLLESGGGLVQPGGSLRLSCAASGFTFSKYFMFWVRQAPGKGLEWVSVISPSGGMTRYADSVKGRFTISRDNSKNTLYLQMNSLRAEDTAVYYCARVGYGGNSDYWGQGTLVTVSS VL: DIQMTQSPSSVSASVGDRLTIICRASQDINRWLAWYQQTPGNAPKLLIHSATNLQSGVPSRFSGSGSGTDFTLTINSLQPEDFATYYCQQADSFPLTFGGGTKVEIK |
| 1.24 fold | – | XPA23 light chain S53F (Fab, V domains shown) VH: EVQLLESGGGLVQPGGSLRLSCAASGFTFSKYFMFWVRQAPGKGLEWVSVISPSGGMTRYADSVKGRFTISRDNSKNTLYLQMNSLRAEDTAVYYCARVGYGGNSDYWGQGTLVTVSS VL: DIQMTQSPSSVSASVGDRLTIICRASQDINRWLAWYQQTPGNAPKLLIHSATFLQSGVPSRFSGSGSGTDFTLTINSLQPEDFATYYCQQADSFPLTFGGGTKVEIK |
| 0.91 fold | – | XPA23 light chain S93R (Fab, V domains shown) VH: EVQLLESGGGLVQPGGSLRLSCAASGFTFSKYFMFWVRQAPGKGLEWVSVISPSGGMTRYADSVKGRFTISRDNSKNTLYLQMNSLRAEDTAVYYCARVGYGGNSDYWGQGTLVTVSS VL: DIQMTQSPSSVSASVGDRLTIICRASQDINRWLAWYQQTPGNAPKLLIHSATSLQSGVPSRFSGSGSGTDFTLTINSLQPEDFATYYCQQADRFPLTFGGGTKVEIK |
| 3.76 fold | – | XPA23 light chain S93N (Fab, V domains shown) VH: EVQLLESGGGLVQPGGSLRLSCAASGFTFSKYFMFWVRQAPGKGLEWVSVISPSGGMTRYADSVKGRFTISRDNSKNTLYLQMNSLRAEDTAVYYCARVGYGGNSDYWGQGTLVTVSS VL: DIQMTQSPSSVSASVGDRLTIICRASQDINRWLAWYQQTPGNAPKLLIHSATSLQSGVPSRFSGSGSGTDFTLTINSLQPEDFATYYCQQADNFPLTFGGGTKVEIK |
| 4.07 fold | – | XPA23 light chain S53K (Fab, V domains shown) VH: EVQLLESGGGLVQPGGSLRLSCAASGFTFSKYFMFWVRQAPGKGLEWVSVISPSGGMTRYADSVKGRFTISRDNSKNTLYLQMNSLRAEDTAVYYCARVGYGGNSDYWGQGTLVTVSS VL: DIQMTQSPSSVSASVGDRLTIICRASQDINRWLAWYQQTPGNAPKLLIHSATKLQSGVPSRFSGSGSGTDFTLTINSLQPEDFATYYCQQADSFPLTFGGGTKVEIK |
| 1.32 fold | – | XPA23 light chain S93F (Fab, V domains shown) VH: EVQLLESGGGLVQPGGSLRLSCAASGFTFSKYFMFWVRQAPGKGLEWVSVISPSGGMTRYADSVKGRFTISRDNSKNTLYLQMNSLRAEDTAVYYCARVGYGGNSDYWGQGTLVTVSS VL: DIQMTQSPSSVSASVGDRLTIICRASQDINRWLAWYQQTPGNAPKLLIHSATSLQSGVPSRFSGSGSGTDFTLTINSLQPEDFATYYCQQADFFPLTFGGGTKVEIK |
| 1.45 fold | – | XPA23 light chain S93Y (Fab, V domains shown) VH: EVQLLESGGGLVQPGGSLRLSCAASGFTFSKYFMFWVRQAPGKGLEWVSVISPSGGMTRYADSVKGRFTISRDNSKNTLYLQMNSLRAEDTAVYYCARVGYGGNSDYWGQGTLVTVSS VL: DIQMTQSPSSVSASVGDRLTIICRASQDINRWLAWYQQTPGNAPKLLIHSATSLQSGVPSRFSGSGSGTDFTLTINSLQPEDFATYYCQQADYFPLTFGGGTKVEIK |
| 1.08 fold | – | XPA23 light chain S93H (Fab, V domains shown) VH: EVQLLESGGGLVQPGGSLRLSCAASGFTFSKYFMFWVRQAPGKGLEWVSVISPSGGMTRYADSVKGRFTISRDNSKNTLYLQMNSLRAEDTAVYYCARVGYGGNSDYWGQGTLVTVSS VL: DIQMTQSPSSVSASVGDRLTIICRASQDINRWLAWYQQTPGNAPKLLIHSATSLQSGVPSRFSGSGSGTDFTLTINSLQPEDFATYYCQQADHFPLTFGGGTKVEIK |
| 5.49 fold | – | XPA23 light chain S93W (Fab, V domains shown) VH: EVQLLESGGGLVQPGGSLRLSCAASGFTFSKYFMFWVRQAPGKGLEWVSVISPSGGMTRYADSVKGRFTISRDNSKNTLYLQMNSLRAEDTAVYYCARVGYGGNSDYWGQGTLVTVSS VL: DIQMTQSPSSVSASVGDRLTIICRASQDINRWLAWYQQTPGNAPKLLIHSATSLQSGVPSRFSGSGSGTDFTLTINSLQPEDFATYYCQQADWFPLTFGGGTKVEIK |
| 3.29 fold | – | XPA23 light chain S53R (Fab, V domains shown) VH: EVQLLESGGGLVQPGGSLRLSCAASGFTFSKYFMFWVRQAPGKGLEWVSVISPSGGMTRYADSVKGRFTISRDNSKNTLYLQMNSLRAEDTAVYYCARVGYGGNSDYWGQGTLVTVSS VL: DIQMTQSPSSVSASVGDRLTIICRASQDINRWLAWYQQTPGNAPKLLIHSATRLQSGVPSRFSGSGSGTDFTLTINSLQPEDFATYYCQQADSFPLTFGGGTKVEIK |
| 4.59 fold | – | XPA23 light chain S93D (Fab, V domains shown) VH: EVQLLESGGGLVQPGGSLRLSCAASGFTFSKYFMFWVRQAPGKGLEWVSVISPSGGMTRYADSVKGRFTISRDNSKNTLYLQMNSLRAEDTAVYYCARVGYGGNSDYWGQGTLVTVSS VL: DIQMTQSPSSVSASVGDRLTIICRASQDINRWLAWYQQTPGNAPKLLIHSATSLQSGVPSRFSGSGSGTDFTLTINSLQPEDFATYYCQQADDFPLTFGGGTKVEIK |
